Legend:
[1] = biological target: Full-length LayV-G (Langya henipavirus attachment glycoprotein G) (Langya henipavirus (LayV)); experiment: cryo-EM structure
[2] = biological target: LayV-G extracellular domain (Langya henipavirus attachment glycoprotein G, residues 63-624) (Langya henipavirus (LayV)); experiment: SEC + other: non-reducing and reducing SDS-PAGE
[3] = biological target: T1, human ephrinB3 extracellular domain (amino acids 1-224) (human, UniProt Q15768 28-224); experiment: BLI
T1 chain: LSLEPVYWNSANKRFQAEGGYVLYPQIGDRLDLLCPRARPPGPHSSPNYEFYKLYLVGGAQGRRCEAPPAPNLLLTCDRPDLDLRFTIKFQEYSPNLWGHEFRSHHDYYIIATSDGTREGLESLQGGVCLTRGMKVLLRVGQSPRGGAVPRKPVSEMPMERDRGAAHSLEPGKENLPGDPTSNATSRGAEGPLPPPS

[4] = biological target: T2, human ephrinB2 extracellular domain (amino acids 1-227) (human, UniProt P52799 28-227); experiment: BLI
T2 chain: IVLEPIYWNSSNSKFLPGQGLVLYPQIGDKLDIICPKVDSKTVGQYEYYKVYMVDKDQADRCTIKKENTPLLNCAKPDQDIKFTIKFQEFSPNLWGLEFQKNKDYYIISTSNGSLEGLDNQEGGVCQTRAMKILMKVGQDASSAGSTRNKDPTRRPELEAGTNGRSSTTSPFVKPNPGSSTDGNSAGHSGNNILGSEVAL

Full-length LayV-G (Langya henipavirus attachment glycoprotein G) (natural protein)
stoichiometry N [1]: 4

LayV-G extracellular domain (Langya henipavirus attachment glycoprotein G, residues 63-624) (domain or fragment)
stoichiometry N [2]: 4

B1: NiV-G ectodomain (Nipah virus attachment glycoprotein G) (domain or fragment)
chain: QNYTRSTDNQAVIKDALQGIQQQIKGLADKIGTEIGPKVSLIDTSSTITIPANIGLLGSKISQSTASINENVNEKCKFTLPPLKIHECNISCPNPLPFREYRPQTEGVSNLVGLPNNICLQKTSNQILKPKLISYTLPVVGQSGTCITDPLLAMDEGYFAYSHLERIGSCSRGVSKQRIIGVGEVLDRGDEVPSLFMTNVWTPPNPNTVYHCSAVYNNEFYYVLCAVSTVGDPILNSTYWSGSLMMTRLAVKPKSNGGGYNQHQLALRSIEKGRYDKVMPYGPSGIKQGDTLYFPAVGFLVRTEFKYNDSNCPITKCQYSKPENCRLSMGIRPNSHYILRSGLLKYNLSDGENPKVVFIEISDQRLSIGSPSKIYDSLGQPVFYQASFSWDTMIKFGDVLTVNPLVVNWRNNTVISRPGQSQCPRFNTCPEICWEGVYNDAFLIDRINWISAGVFLDSNQTAENPVFTVFKDNEILYRAQLASEDTNAQKTITNCFLLKNKIWCISLVEIYDTGDNVIRPKLFAVKIPEQCT
Kd [3]: 9.3 nM
Kd [4]: 0.19 nM

Reference: publication PMC10821904 (2024)
